Changes are numbered by the printed parent chain.
T1: Cpn20 mutant G32A (A. thaliana, UniProt O65282 51-253, G32A)
T1 sequence (looked up): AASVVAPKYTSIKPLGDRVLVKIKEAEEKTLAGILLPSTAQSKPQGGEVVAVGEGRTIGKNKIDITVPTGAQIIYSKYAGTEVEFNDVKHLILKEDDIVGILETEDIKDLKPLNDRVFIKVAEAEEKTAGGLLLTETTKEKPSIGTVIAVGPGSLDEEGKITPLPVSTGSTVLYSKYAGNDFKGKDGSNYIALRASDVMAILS

B1: Cpn10(2) co-chaperonin of A. thaliana (natural protein, UniProt O80504 40-139, looked up)
chain: IKAISTKWEPTKVVPQADRVLVRLEDLPIKSSGGVLLPKAAVKFERYLTGEIISVGSEVGQQVGPGKRVLFSDVSAYEVDLGTDARHCFCKESDLLALVE
notes: Cpn10(2), A. thaliana chloroplast co-chaperonin, At2g44650
B2: Cpn60α2 (natural protein)
chain: not shown
notes: additional glycine-serine at the N-terminus; Cpn60α2, A. thaliana chloroplast chaperonin α subunit, At2g28000; alanine 46 chosen as the first amino acid of the mature protein; The vector codes for an octa-histidine tag followed by a TEV site
B3: GroES (natural protein, E. coli, UniProt P0A6F9 1-97, looked up)
chain: MNIRPLHDRVIVKRKEVETKSAGGIVLTGSAAAKSTRGEVLAVGNGRILENGEVKPLDVKVGDIVIFNDGYGVKSEKIDNEEVLIMSESDILAIVEA
notes: GroES, the co-chaperonin (Cpn10) of E. coli
B4: Cpn10(1) co-chaperonin of A. thaliana, lacking the N-terminal chloroplast transit peptide (natural protein, UniProt Q9M1C2 43-138, looked up)
chain: STKWEPAKVVPQADRVLVRLEVLPEKSSGGVLLPKSAVKFERYLTGEVVSVGSEVGEVEPGKKVLFSDMSAYEVDFGTEDAKHCFCKESDLLAIVQ
notes: Cpn10(1), A. thaliana chloroplast co-chaperonin, At3g60210, without the transit peptide; Serine 43 chosen as the first amino acid; Cloned between XhoI and NdeI of pET22b+; source: E. coli BL21(T7+), pET22b+, purified (Mono-Q, Superdex 200, Superdex 75)
B5: Cpn20 co-chaperonin of A. thaliana (natural protein, UniProt O65282 51-253, looked up)
chain: T1 sequence (looked up) with A32G
notes: Cpn20, A. thaliana chloroplast co-chaperonin of two Cpn10-like domains joined head-to-tail, At5g20720

Columns and labels:
[1] = biological target: T1, Cpn20 mutant G32A; assay: cell-based or functional assay
[2] = biological target: the molecule itself; assay: cross-linking; 45 µM co-chaperonin with 1 mM DSS at room temperature, 50 mM Na-HEPES pH 7.5, 10 mM MgCl2, 100 mM KCl; time course; SDS gradient gel, Coomassie
[3] = biological target: T2, Cpn60β3 (A. thaliana, UniProt P21240 55-600); assay: SEC; reconstitution of 150 µM Cpn60α2 and 100 µM Cpn60β3 with 50 µM mt-cpn10, 5 mM ATP, 50 mM Tris-HCl pH 8, 300 mM NaCl, 10 mM MgCl2, 16 mM KCl, 2 mM DTT, 1 h 30°C; oligomers separated from monomers on Superdex 200 at room temperature; settings: both partners purified
T2 construct: Cpn60β3, A. thaliana chloroplast chaperonin β subunit, At1g55490
T2 sequence (P21240 55-600): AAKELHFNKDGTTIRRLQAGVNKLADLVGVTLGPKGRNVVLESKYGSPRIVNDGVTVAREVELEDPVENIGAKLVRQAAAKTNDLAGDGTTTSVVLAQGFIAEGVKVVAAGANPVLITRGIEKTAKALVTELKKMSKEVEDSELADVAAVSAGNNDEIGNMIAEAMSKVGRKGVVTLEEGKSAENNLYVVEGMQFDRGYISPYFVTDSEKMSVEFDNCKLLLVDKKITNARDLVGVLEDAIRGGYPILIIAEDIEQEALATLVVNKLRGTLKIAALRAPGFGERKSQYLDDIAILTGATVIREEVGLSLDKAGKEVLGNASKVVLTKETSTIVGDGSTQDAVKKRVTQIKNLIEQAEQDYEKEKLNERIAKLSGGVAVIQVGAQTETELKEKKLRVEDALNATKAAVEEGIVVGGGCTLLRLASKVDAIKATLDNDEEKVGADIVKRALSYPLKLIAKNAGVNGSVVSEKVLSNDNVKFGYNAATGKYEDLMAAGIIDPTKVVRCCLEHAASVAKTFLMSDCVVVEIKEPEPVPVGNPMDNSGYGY

[4] = biological target: B5; assay: cell-based or functional assay
[5] = biological target: the molecule itself; assay: native gel or EMSA; co-chaperonins at 100 µM (protomer) mixed at various ratios, 5 min at room temperature, 6% native acrylamide gel; no Cpn60 or ATP

Binder: B1
refolding of urea-denatured MDH by Cpn60αβ, Cpn10(2) titrated on a background of 20 µM G32A; at a 0.25 ratio of [co-chaperonin]/[Cpn60αβ], against 18.06% with Cpn10(2) alone [1]: 29.1% | stoichiometry N [2]: 7

Binder: B2
binding result [3]: binds

Binder: B3
stoichiometry N [2]: 7

Binder: B4
refolding of urea-denatured MDH by 10 µM Cpn60αβ, Cpn20 titrated (0.625–20 µM) with constant 20 µM Cpn10(1); against 51.39% with Cpn20 alone (% of Cpn60αβ with mt-cpn10) [4]: 77.8% | refolding of urea-denatured MDH by GroEL with the combination of G32A and Cpn10(1), each inactive alone (% of GroEL with saturating GroES) [1]: ~75% | refolding of urea-denatured MDH by chloroplast Cpn60αβ with the combination of G32A and Cpn10(1), each inactive alone (% of Cpn60αβ with mt-cpn10) [1]: ~40% | stoichiometry N [2]: 2

Binder: B5
binding result [5]: binds

— publication PMC4242682, “The Cpn10(1) Co-Chaperonin of A. thaliana Functions Only as a Hetero-Oligomer with Cpn20” (PLoS ONE, 2014)
